# According to PMC11203732, “Structural Evaluation of a Nitroreductase Engineered for Improved Activation of the 5-Nitroimidazole PET Probe SN33623” (International Journal of Molecular Sciences, 2024):
# Target: the molecule itself
# Assay: crystal structure; hanging-drop vapor diffusion at 18 °C; 7 mg/mL protein in 40 mM Tris-HCl pH 7.0, 200 mM NaCl; precipitant 0.2 M sodium chloride, 0.1 M sodium acetate pH 4.0, 33% PEG 8000; four molecules in the asymmetric unit; FMN bound
protein,measurement,value
"E. coli NfsB F70A/F108Y (enzyme, Nitroreductase NfsB of Escherichia coli, 24 kDa subunit, with the substitutions F70A and F108Y; synthetic gene (Twist Bioscience) cloned into pET28a+; Homodimer with one FMN in each of two active sites at the dimer interface; also called mutNfsB; double-mutant F70A/F108Y) MDIISVALKRHSTKAFDASKKLTPEQAEQIKTLLQYSPSSTNSQPWHFIVASTEEGKARVAKSAAGNYVANERKMLDASHVVVFCAKTAMDDVWLKLVVDQEDADGRYATPEAKAANDKGRKFFADMHRKDLHDDAEWMAKQVYLNVGNFLLGVAALGLDAVPIEGFDAAILDAEFGLKEKGYTSLVVVPVGHHSVEDFNATLPKSRLPQNITLTEV",stoichiometry N,2
